Results on 1 molecule are retold here after publication PMC4919432, “The Dimeric Architecture of Checkpoint Kinases Mec1^ATR and Tel1^ATM Reveal a Common Structural Organization*” (The Journal of Biological Chemistry, 2016).

This test has as its target T1, Mec1 (yeast (budding yeast), UniProt P38111 1-2368).
T1 construct: Mec1, yeast orthologue of mammalian ATR; 2,368 amino acids as the introduction says; The Mec1 subunit of m1, for the rows of two subunits; also called Mec1^ATR; yeast orthologue of ATR; source: yeast, overexpressed from pBL904 together with Ddc2, purified as the Mec1·Ddc2 complex (IgG-Sepharose, HRV 3C cleavage)
Briefly: SEC; Mec1·Ddc2 on Superose 6 HR 10/30, 0.3 ml/min; 50 mM HEPES-KOH pH 7.4, 200 mM KCl, 10% glycerol, 0.1% Tween 20, 0.01% Nonidet P-40, 1 mM EDTA, 1 mM EGTA, 2 mM DTT; size against Bio-Rad gel filtration standards; peak fractions on SDS-PAGE. As to conditions: both partners purified.

T1 sequence (P38111 whole entry): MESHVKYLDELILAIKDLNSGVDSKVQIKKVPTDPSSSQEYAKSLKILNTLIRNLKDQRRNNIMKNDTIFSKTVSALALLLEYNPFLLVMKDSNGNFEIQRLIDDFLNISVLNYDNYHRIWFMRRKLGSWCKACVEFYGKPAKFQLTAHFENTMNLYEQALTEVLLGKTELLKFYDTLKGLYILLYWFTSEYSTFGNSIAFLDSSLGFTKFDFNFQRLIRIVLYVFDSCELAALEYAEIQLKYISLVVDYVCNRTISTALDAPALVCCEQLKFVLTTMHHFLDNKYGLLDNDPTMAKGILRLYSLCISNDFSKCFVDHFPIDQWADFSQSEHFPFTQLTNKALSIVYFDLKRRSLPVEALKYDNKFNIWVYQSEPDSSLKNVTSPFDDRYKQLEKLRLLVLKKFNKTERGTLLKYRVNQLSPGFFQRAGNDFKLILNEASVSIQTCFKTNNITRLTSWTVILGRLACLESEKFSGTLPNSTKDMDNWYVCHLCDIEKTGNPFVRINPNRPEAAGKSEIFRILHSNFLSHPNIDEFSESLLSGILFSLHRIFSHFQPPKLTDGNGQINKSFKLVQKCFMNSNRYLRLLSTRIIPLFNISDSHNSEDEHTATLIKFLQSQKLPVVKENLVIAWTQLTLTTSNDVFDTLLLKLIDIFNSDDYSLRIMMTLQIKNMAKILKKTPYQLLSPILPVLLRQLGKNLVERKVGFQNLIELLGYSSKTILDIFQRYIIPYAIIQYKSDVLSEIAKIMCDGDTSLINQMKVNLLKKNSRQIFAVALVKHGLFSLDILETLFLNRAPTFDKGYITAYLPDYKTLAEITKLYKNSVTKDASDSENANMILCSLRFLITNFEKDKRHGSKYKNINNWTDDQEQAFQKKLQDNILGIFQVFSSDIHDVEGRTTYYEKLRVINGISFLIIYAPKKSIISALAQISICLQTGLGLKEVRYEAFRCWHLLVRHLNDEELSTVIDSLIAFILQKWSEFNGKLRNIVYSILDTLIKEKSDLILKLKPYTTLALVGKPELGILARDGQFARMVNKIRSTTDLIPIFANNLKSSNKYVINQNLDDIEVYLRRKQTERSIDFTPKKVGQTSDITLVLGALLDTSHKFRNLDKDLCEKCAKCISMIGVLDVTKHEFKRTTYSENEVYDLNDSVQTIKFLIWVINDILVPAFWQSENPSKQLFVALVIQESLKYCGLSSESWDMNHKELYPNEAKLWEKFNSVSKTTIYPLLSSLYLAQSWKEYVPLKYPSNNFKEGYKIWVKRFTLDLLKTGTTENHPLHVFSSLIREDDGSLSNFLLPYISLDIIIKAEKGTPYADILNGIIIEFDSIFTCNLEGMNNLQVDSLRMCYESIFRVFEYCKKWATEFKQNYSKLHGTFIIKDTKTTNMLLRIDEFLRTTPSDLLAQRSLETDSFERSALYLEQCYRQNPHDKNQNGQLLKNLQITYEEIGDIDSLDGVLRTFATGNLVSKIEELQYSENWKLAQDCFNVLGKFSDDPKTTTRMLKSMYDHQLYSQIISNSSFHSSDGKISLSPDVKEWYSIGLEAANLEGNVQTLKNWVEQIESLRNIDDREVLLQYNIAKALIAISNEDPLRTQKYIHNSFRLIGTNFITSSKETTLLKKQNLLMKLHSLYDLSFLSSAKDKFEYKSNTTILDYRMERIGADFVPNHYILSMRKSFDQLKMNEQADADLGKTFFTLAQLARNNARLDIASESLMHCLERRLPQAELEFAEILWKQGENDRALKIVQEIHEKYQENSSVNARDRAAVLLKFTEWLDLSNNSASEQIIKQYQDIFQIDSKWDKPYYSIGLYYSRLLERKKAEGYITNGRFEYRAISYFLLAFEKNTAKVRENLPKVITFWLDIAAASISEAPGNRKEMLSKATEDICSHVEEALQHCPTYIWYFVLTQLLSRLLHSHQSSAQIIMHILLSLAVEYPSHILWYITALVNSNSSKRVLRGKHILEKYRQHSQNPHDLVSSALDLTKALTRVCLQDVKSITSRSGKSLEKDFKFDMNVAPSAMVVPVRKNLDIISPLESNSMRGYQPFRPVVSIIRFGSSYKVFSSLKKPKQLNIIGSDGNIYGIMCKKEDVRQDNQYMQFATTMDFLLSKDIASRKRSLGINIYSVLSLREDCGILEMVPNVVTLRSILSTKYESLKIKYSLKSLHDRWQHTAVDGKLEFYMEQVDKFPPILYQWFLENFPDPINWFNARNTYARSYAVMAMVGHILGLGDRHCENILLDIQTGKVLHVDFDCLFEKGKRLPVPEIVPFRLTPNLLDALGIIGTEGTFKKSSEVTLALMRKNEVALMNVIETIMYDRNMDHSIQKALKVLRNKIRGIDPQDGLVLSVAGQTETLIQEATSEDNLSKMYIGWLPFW

B1: Ddc2 (natural protein, yeast (budding yeast), UniProt Q04377 1-747, looked up)
chain: MRRETVGEFSSDDDDDILLELGTRPPRFTQIPPSSAALQTQIPTTLEVTTTTLNNKQSKNDNQLVNQLNKAQGEASMLRDKINFLNIEREKEKNIQAVKVNELQVKHLQELAKLKQELQKLEDEKKFLQMEARGKSKREVITNVKPPSTTLSTNTNTITPDSSSVAIEAKPQSPQSKKRKISDNLLKKNMVPLNPNRIIPDETSLFLESILLHQIIGADLSTIEILNRLKLDYITEFKFKNFVIAKGAPIGKSIVSLLLRCKKTLTLDRFIDTLLEDIAVLIKEISVHPNESKLAVPFLVALMYQIVQFRPSATHNLALKDCFLFICDLIRIYHHVLKVPIHESNMNLHVEPQIFQYELIDYLIISYSFDLLEGILRVLQSHPKQTYMEFFDENILKSFEFVYKLALTISYKPMVNVIFSAVEVVNIITSIILNMDNSSDLKSLISGSWWRDCITRLYALLEKEIKSGDVYNENVDTTTLHMSKYHDFFGLIRNIGDNELGGLISKLIYTDRLQSVPRVISKEDIGMDSDKFTAPIIGYKMEKWLLKLKDEVLNIFENLLMIYGDDATIVNGEMLIHSSKFLSREQALMIERYVGQDSPNLDLRCHLIEHTLTIIYRLWKDHFKQLREEQIKQVESQLIMSLWRFLVCQTETVTANEREMRDHRHLVDSLHDLTIKDQASYYEDAFEDLPEYIEEELKMQLNKRTGRIMQVKYDEKFQEMARTILESKSFDLTTLEEADSLYISMGL
notes: Ddc2 (also called Lcd1 or Pie1), yeast orthologue of ATRIP; The Ddc2 subunit of m1, for the rows of two subunits; also called Lcd1; Pie1; source: yeast, overexpressed from pBL904 together with Mec1, purified as the Mec1·Ddc2 complex (IgG-Sepharose, HRV 3C cleavage)
On to B1, for which the binding result is given as “binds”.
